From IntAct's records for PubMed 18946488

B1: Rho-related GTP-binding protein RhoE (Mus musculus), P61588 (parent)
chain: MKERRASQKLSSKSIMDPNQNVKCKIVVVGDSQCGKTALLHVFAKDCFPENYVPTVFENYTASFEIDTQRIELSLWDTSGSPYYDNVRPLSYPDSDAVLICFDISRPETLDSVLKKWKGEIQEFCPNTKMLLVGCKSDLRTDVSTLVELSNHRQTPVSYDQGANMAKQIGAATYIECSALQSENSVRDIFHVATLACVNKTNKNVKRNKSQRATKRISHMPSRPELSAVATDLRKDKAKSCTVM

Variants of: B1
Conditions: with rock1_mouse Rock1, P70335
Sequence of rock1_mouse Rock1, P70335 (P70335 whole entry): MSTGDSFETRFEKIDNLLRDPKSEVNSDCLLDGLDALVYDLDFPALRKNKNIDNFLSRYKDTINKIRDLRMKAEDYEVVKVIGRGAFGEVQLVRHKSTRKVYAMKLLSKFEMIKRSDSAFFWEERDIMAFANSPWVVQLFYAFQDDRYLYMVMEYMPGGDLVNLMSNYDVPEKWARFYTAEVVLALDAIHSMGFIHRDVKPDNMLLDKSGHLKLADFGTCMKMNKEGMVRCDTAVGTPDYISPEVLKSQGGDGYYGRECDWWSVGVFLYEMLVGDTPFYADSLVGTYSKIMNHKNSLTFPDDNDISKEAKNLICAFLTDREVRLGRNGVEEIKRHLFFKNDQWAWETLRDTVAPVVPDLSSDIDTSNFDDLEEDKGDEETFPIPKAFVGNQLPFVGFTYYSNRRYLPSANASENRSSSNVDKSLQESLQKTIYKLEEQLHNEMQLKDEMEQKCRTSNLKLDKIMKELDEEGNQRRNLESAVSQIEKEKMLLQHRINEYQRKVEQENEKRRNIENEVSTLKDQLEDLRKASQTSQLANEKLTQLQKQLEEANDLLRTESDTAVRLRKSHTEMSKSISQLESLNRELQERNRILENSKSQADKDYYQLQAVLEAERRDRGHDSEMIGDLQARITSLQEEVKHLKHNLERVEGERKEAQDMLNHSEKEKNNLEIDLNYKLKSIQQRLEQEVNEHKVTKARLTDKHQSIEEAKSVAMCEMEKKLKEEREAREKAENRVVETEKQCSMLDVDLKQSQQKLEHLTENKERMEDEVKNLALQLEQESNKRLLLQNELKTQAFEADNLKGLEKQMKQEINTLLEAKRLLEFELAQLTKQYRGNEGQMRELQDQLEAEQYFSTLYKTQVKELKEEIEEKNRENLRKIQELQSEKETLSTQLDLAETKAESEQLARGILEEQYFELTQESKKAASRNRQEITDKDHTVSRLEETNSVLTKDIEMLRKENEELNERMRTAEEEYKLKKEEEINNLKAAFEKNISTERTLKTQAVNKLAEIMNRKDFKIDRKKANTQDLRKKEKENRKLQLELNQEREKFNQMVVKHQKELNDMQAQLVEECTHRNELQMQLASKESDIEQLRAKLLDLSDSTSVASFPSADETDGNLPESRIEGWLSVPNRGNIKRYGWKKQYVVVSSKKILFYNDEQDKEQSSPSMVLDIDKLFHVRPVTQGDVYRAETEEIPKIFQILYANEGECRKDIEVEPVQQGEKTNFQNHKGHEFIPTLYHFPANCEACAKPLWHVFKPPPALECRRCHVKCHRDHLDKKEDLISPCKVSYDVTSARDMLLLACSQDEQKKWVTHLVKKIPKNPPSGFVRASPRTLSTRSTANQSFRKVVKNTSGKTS

effect of a mutation on the interaction | Variant
disrupting interaction | V192R

Variants of: B1
Conditions: with rock1_mouse Rock1, P70335
Remark: another data set of the same source

effect of a mutation on the interaction | Variant
disrupting interaction | T173R
